{
  "source": "patent US20260029420A1",
  "about": "“ANTI-CB2 ANTIBODIES AND THEIR USE IN A FLOW CYTOMETRY ASSAY TO MEASURE CELL SURFACE CB2 EXPRESSION” (Hoffmann-La Roche Inc., priority 2022, published 2026)",
  "molecules": {"B1": {"name": "hCB2-1/622: murine IgG3 monoclonal anti-human CB2 antibody, VH SEQ ID NO: 1, VL SEQ ID NO: 2, HC SEQ ID NO: 3, LC SEQ ID NO: 4 (antibody)", "heavy": "EVQLQQSGPELVKPGASVKISCKTSGYTFTEYTMHWVRQSHGKSLEWIGGIDRYNGDTYYNQKFKDKATLTVDRSSSTAYMELRSLTSEDSAVYFCARNGAMDYWGQGISVTVSSATTTAPSVYPLVPGCSDTSGSSVTLGCLVKGYFPEPVTVKWNYGALSSGVRTVSSVLQSGFYSLSSLVTVPSSTWPSQTVICNVAHPASKTELIKRIEPRIPKPSTPPGSSCPPGNILGGPSVFIFPPKPKDALMISLTPKVTCVVVDVSEDDPDVHVSWFVDNKEVHTAWTQPREAQYNSTFRVVSALPIQHQDWMRGKEFKCKVNNKALPAPIERTISKPKGRAQTPQVYTIPPPREQMSKKKVSLTCLVTNFFSEAISVEWERNGELEQDYKNTPPILDSDGTYFLYSKLTVDTDSWLQGEIFTCSVVHEALHNHHTQKNLSRSPGK", "light": "DVVMTQTPLSLPVSLGDQASISCRSSQSLVHSNGNTYLHWFLQKPGQSPKLLIYKVSIRFSGVPDRFSGSGSGTDFTLKISRVEAEDLGVYFCSQSTHVPPLTFGAGTKLELKRADAAPTVSIFPPSSEQLTSGGASVVCFLNNFYPKDINVKWKIDGSERQNGVLNSWTDQDSKDSTYSMSSTLTLTKDEYERHNSYTCEATHKTSTSPIVKSFNRNEC"}},
  "key": {"[1]": {"target": "T1, cell surface CB2 on B-cells (Homo sapiens, UniProt P34972)", "T1 construct": "measured in whole blood samples from nine different healthy human volunteers of working-age; endogenous in cells; host or cells: B-cells (and basophils and other leukocytes) in human whole blood", "T1 sequence (P34972 whole entry)": "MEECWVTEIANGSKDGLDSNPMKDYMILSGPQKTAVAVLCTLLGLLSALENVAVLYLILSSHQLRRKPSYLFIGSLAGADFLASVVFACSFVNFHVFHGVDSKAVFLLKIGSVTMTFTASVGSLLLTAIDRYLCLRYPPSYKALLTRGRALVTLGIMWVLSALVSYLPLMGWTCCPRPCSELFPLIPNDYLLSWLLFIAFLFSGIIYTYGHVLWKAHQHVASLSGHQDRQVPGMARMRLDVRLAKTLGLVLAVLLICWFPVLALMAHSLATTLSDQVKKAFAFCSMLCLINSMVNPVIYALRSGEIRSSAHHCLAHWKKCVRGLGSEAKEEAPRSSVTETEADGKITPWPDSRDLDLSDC", "experiment": "Flow cytometry detection of baseline cell surface CB2 on B-cells in untreated whole blood", "assay_type": "binding", "settings": "increasing antibody concentrations", "method": "FIG. 5A and FIG. 5B: Comparison of different anti-hCB2 antibodies in detecting cell surface CB2 expression on B-cells. FIG. 5A: Flow cytometric analysis with increasing concentrations of hCB2 antibody 1/622 (black dots) and hCB2 clone 352110 (R&D Systems; dark rectangle). A fluorescence minus one (FMO) serves as control as well as the secondary PE labeled antibody alone (0 μg antibody/sample). FIG. 5B: Flow cytometric analysis with increasing concentrations of mouse IgG3 isotype control clone B10 (SBA; open dots), hCB2 antibody 1/622 (black dots), mouse IgG2b isotype control clone 26114 (R&D Systems; open rectangles) and hCB2 clone 352110 (R&D Systems; dark rectangles). The secondary PE labeled antibody alone serves as 0 μg antibody/sample control.\nDetection of baseline expression of cell surface CB2 on B-cells was assessed for clone 1/622 and compared to a commercially available hCB2 antibody (R&D Systems; clone 352110) (5). The flow cytometry experiment was performed as described in Example 3 yet using untreated whole blood samples and using increasing concentrations of the respective anti-human CB2 antibody. […]\nFor determination of cell surface expression of CB2 on B-cells, median fluorescent intensity (MFI) was analyzed by gating around the CD45^+ CD3^− CD14^− CD19^+ B-cells (see gating strategy in FIG. 6A to FIG. 6E) and acquiring a minimum of 2000 events in this gate (FIG. 6F). […]"}, "[2]": {"experiment": "Storage stability of antibody working dilution", "assay_type": "physicochemical", "settings": "working dilution (5 μg/sample), on ice", "method": "FIG. 12: Single dose in vivo study monitoring the pharmacodynomic effect of RG7774 on CB2 expression on B-cells in Cynomolgus upon oral dosing. Three healthy cynomolgus monkeys were dosed with 100 mg/kg of the CB2 agonist RG7774. The blood draw at different time points was followed by the incubation with the anti-human CB2 antibody 1/622. The expression of CB2 on the surface of B-cells was analyzed using a lineage marker mix specific for B-cells and T-cells. The B/T-cell CB2 MFI ratio was calculated and normalized to baseline. 0 μM served as 100% baseline receptor expression. […] Due to a storage effect of the antibody working dilution (5 μg/sample) of the anti-human CB2 Ab 1/622 the 4 and 7 hours' time point have been excluded. The working dilution of this antibody is only stable for 2 hours on ice."}},
  "data": [
    {"molecule": "B1", "values": [
      {"measurement": "Median fluorescence intensity on B-cells", "setting": "[1]", "value": "dose-dependent increase"},
      {"measurement": "stability of antibody working dilution", "setting": "[2]", "value": 2, "unit": "h"}
    ]}
  ]
}
